Reference: article PMC10456876
Residue numbers refer to the chain shown, from its start. Names may count otherwise. Each block holds one binder with its values, some of them ahead of it.

Experiments:
[1] = molecular target: human telomeric nucleosome core particle (teloNCP), P68431;P62805;P04908;P06899; assay: EMSA; conditions: chain shown with the change, triplicate; for response: read off a plot; for EC50: titration 0, 23, 36, 55, 85, 130, 200 nM TRF1core against teloNCP
[2] = molecular target: T1, TRF1 (human), P54274; assay: native MS; purified TRF1core (co-expressed in Sf9, co-purified through MBP on TIN2) at 20 uM, dialysed into 750 mM ammonium acetate pH 8.0, 1 mM DTT; conditions: remark: other sources report otherwise
T1 chain: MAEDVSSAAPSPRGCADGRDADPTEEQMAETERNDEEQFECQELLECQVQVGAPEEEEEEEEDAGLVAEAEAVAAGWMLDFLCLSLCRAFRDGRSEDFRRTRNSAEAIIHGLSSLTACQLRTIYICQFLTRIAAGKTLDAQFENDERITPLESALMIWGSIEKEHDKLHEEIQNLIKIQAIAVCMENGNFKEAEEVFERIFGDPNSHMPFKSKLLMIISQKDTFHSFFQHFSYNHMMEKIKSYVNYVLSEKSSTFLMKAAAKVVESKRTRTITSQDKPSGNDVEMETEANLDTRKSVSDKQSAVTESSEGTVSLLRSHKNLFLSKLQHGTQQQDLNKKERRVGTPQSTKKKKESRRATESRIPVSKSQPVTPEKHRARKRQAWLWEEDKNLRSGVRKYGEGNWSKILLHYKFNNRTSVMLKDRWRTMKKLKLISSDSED

[3] = point at 55 nM TRF1core, parent: est. 79

response [1, 3]: 91 % Bound | EC50 [1]: 30.3 nM
B1: wild-type MBP-tagged TRF1core (TRF1-TIN2-TPP1), P54274;Q9BSI4 S434D; S435D; S437D (protein)
chain 1: T1 chain with S434D, S435D, S437D
chain 2: MATPLVAGPAALRFAAAASWQVVRGRCVEHFPRVLEFLRSLRAVAPGLVRYRHHERLCMGLKAKVVVELILQGRPWAQVLKALNHHFPESGPIVRDPKATKQDLRKILEAQETFYQQVKQLSEAPVDLASKLQELEQEYGEPFLAAMEKLLFEYLCQLEKALPTPQAQQLQDVLSWMQPGVSITSSLAWRQYGVDMGWLLPECSVTDSVNLAEPMEQNPPQQQRLALHNPLPKAKPGTHLPQGPSSRTHPEPLAGRHFNLAPLGRRRVQSQWASTRGGHKERPTVMLFPFRNLGSPTQVISKPESKEEHAIYTADLAMGTRAASTGKSKSPCQTLGGRALKENPVDLPATEQKENCLDCYMDPLRLSLLPPRARKPVCPPSLCSSVITIGDLVLDSDEEENGQGEGKESLENYQKTKFDTLIPTLCEYLPPSGHGAIPVSSCDCRDSSRPL
chain 3: MAGSGRLVLRPWIRELILGSETPSSPRAGQLLEVLQDAEAAVAGPSHAPDTSDVGATLLVSDGTHSVRCLVTREALDTSDWEEKEFGFRGTEGRLLLLQDCGVHVQVAEGGAPAEFYLQVDRFSLLPTEQPRLRVPGCNQDLDVQKKLYDCLEEHLSESTSSNAGLSLSQLLDEMREDQEHQGALVCLAESCLTLEGPCTAPPVTHWAASRCKATGEAVYTVPSSMLCISENDQLILSSLGPCQRTQGPELPPPDPALQDLSLTLIASPPSSPSSSGTPALPGHMSSEESGTSISLLPALSLAAPDPGQRSSSQPSPAICSAPATLTPRSPHASRTPSSPLQSCTPSLSPRSHVPSPHQALVTRPQKPSLEFKEFVGLPCKNRPPFPRTGATRGAQEPCSVWEPPKRHRDGSAFQYEYEPPCTSLCARVQAVRLPPQLMAWALHFLMDAQPGSEPTPM

stoichiometry N [2]: 2
B2: TRF1, P54274 1-439 (natural protein)
chain: T1 chain
modifications: here or on the partner: phosphoserine at 434, 435 and 437 (likely by endogenous insect cell kinases; S435 phosphorylated in 87.3% of the identified peptides); phosphoserine at 434, 435 and 437 (likely by endogenous insect cell kinases; S435 phosphorylated in 87.3% of the identified peptides)

response [1, 3]: 68 % Bound | response ([1]; point at 200 nM TRF1core, parent: est. 100): 97 % Bound | EC50 [1]: 42.4 nM
B3: wild-type MBP-tagged TRF1core (TRF1-TIN2-TPP1), P54274;Q9BSI4 L384A; W385A; K389A (protein)
chain 1: AEDVSSAAPSPRGCADGRDADPTEEQMAETERNDEEQFECQELLECQVQVGAPEEEEEEEEDAGLVAEAEAVAAGWMLDFLCLSLCRAFRDGRSEDFRRTRNSAEAIIHGLSSLTACQLRTIYICQFLTRIAAGKTLDAQFENDERITPLESALMIWGSIEKEHDKLHEEIQNLIKIQAIAVCMENGNFKEAEEVFERIFGDPNSHMPFKSKLLMIISQKDTFHSFFQHFSYNHMMEKIKSYVNYVLSEKSSTFLMKAAAKVVESKRTRTITSQDKPSGNDVEMETEANLDTRKSVSDKQSAVTESSEGTVSLLRSHKNLFLSKLQHGTQQQDLNKKERRVGTPQSTKKKKESRRATESRIPVSKSQPVTPEKHRARKRQAWAAEEDANLRSGVRKYGEGNWSKILLHYKFNNRTSVMLKDRWRTMKKLKLISSDSED
chain 2: B1 chain 2
chain 3: B1 chain 3
